Measurements published in patent US20220064329A1 (Novo Nordisk, published 2022).
Positions count from the first letter of the chain named. One block for each binder: values may come before it.

How the values were obtained:
[1] = target: T1, recombinant human activated Factor VII (FVIIa) (human, UniProt P08709 61-212; P08709 213-466, Gla domain: ten glutamate residues may be gamma-carboxylated); assay: Bio-Layer Interferometry (Fortebio), antibody on anti-human tips, FVIIa 25-200 nM
T1 construct: two-chain form after cleavage between Arg152 and Ile153; light chain (Gla, EGF domains) and heavy chain (protease domain) tethered by a disulfide bond; also called rFVIIa; human FVIIa
T1 sequence 1: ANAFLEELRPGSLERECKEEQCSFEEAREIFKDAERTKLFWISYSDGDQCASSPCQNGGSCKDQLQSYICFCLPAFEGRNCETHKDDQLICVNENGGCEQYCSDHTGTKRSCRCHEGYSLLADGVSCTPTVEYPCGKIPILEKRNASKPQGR
T1 sequence 2: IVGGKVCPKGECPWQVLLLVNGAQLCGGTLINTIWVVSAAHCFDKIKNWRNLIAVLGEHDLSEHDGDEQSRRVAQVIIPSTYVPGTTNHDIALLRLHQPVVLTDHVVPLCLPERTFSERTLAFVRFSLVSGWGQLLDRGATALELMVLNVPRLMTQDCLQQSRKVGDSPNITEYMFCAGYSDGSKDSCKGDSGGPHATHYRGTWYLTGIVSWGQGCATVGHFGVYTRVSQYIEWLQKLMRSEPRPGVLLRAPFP
Experimental: All steps were performed in running buffer (20 mM HEPES buffer (pH 7.4), 150 mM NaCl, 5 mM CaCl2, 0.03% Tween 20, 1 mg/ml IgG-free BSA) at […] Antibodies were captured on anti-human tips (AHC, Fortebio) for 3 min at a concentration of 10 ug/ml. This was followed by a 3 min incubation to establish a baseline. Following this, association was monitored for 3 min using four different concentrations of VIIa (25 nm, 50 nM, 100 nM, and 200 nM), followed by a 3 mi dissociation. Sensorgrams were analysed using Fortebio data analysis software.

[2] = target: T1, recombinant human activated Factor VII …; assay: cell-based or functional assay
[3] = target: T2, recombinant human activated Factor VII (FVIIa) (human, UniProt P08709 61-212; P08709 213-466, ten glutamate residues of the Gla domain may be gamma-carboxylated); assay: SPR (Biacore)
T2 construct: chains tethered by a disulfide bond; also called Factor VIIa; rFVIIa
T2 sequence 1: T1 sequence 1
T2 sequence 2: T1 sequence 2

B1: mAb0110 (antibody, human IgG4 S228P, kappa, V domains shown)
VH: DVQLQESGPGLVKPSQTLSLTCTVSGYSISSDSAWSWIRQPPGKGLEWIGYIQYSGSTNYNPSLKSRVTISRDTSKNQFSLKLSSVTAADTAVYYCARSVNYYGNSFWVDPWGQGTLVTVSS
VL: DIVMTQSPATLSVTAGDRVSLSCRASQGISDYLHWYQQKSHESPRLLIKYTSQPVSGIPSRFSGSGSGSEFTLSINSVEPEDVGVYYCQNGHSFPLTFGAGTKLELKR
notes: humanized 11F2 variant, first round
- Kd [1]: 42000 nM

B3: mAb0109 (antibody, human IgG4 S228P, kappa, V domains shown)
VH: DVQLQESGPGLVEPSQSLSLTCTVTGYSITSDSAWSWIRQFPGNKLEWMGYIQYSGSTNYNPSLKSRISVTRDTSKNQFFLRLSSVTAEDTATYYCTRSVNYYGNSFAVGYWGQGTSVTVSS
VL: EIVLTQSPATLSLSPGERATLSCRASQGISDYLHWYQQKPGEAPRLLIKYTSQPATGIPARFSGSGSGTDFTLTISSLEPEDVGVYYCQSGHSFPLTFGAGTKLELKR
notes: as for B1
- Kd [1]: 11 nM

B4: mAb0112 (antibody, human IgG4 S228P, kappa, V domains shown)
VH: B1 VH with K13E, S30T, P41F, G45K, I49M, A89E, D110G, P111Y, L117S
VL: B3 VL with S90N
notes: as for B1
- Kd [1]: 13 nM

B6: mAb0116 (antibody, human IgG4 S228P, kappa, V domains shown)
VH: B1 VH with K13E, S30T, P41F, G45K, I49M, A89E, W108A, P111Y, L117S
VL: B3 VL with S90N
notes: as for B1
- Kd [1]: 32 nM

B7: mAb0113 (antibody, human IgG4 S228P, kappa)
heavy: not shown
light: EIVLTQSPATLSLSPGERATLSCRASQGISDYLHWYQQKPGEAPRLLIKYTSQPATGIPARFSGSGSGTDFTLTISSLEPEDVGVYYCQNGHSFPLTFGAGTKLELKRTVAAPSVFIFPPSDEQLKSGTASVVCLLNNFYPREAKVQWKVDNALQSGNSQESVTEQDSKDSTYSLSSTLTLSKADYEKHKVYACEVTHQGLSSPVTKSFNRGEC
notes: as for B1
- Kd [1]: 1.8 nM

B9: mAb0115 (antibody, human IgG4 S228P, kappa, V domains shown)
VH: B1 VH with K13E, S30T, G45K, I49M, A89E, W108A, D110G, P111Y, L117S
VL: B3 VL with S90N
notes: as for B1
- Kd [1]: 1.5 nM

B10: mAb0117 (antibody, human IgG4 S228P, kappa, V domains shown)
VH: B1 VH with K13E, S30T, P41F, I49M, A89E, W108A, D110G, P111Y, L117S
VL: B3 VL with S90N
notes: as for B1
- Kd [1]: 1.4 nM

B20: mAb0114 (antibody, human IgG4 S228P, kappa, V domains shown)
VH: B1 VH with K13E, S30T, P41F, G45K, I49M, W108A, D110G, P111Y, L117S
VL: B3 VL with S90N
notes: as for B1
- Kd [1]: 1.5 nM

B21: mAb0118 (antibody, human IgG4 S228P, kappa, V domains shown)
VH: B1 VH with K13E, S30T, P41F, G45K, A89E, W108A, D110G, P111Y, L117S
VL: B3 VL with S90N
notes: as for B1
- Kd [1]: 1.7 nM

B22: biAb0001 (bispecific antibody, human IgG4 S228P, kappa)
heavy 1: QVQLQESGPGLVKPSQTLSLTCTVSGYSISSDSAWSWIRQPPGKGLEWIGYIQYSGSTNYNPSLKSRVTISRDTSKNQFSLKLSSVTAADTAVYYCARSVNYYGNSFAVGYWGQGTLVTVSSASTKGPSVFPLAPCSRSTSESTAALGCLVKDYFPEPVTVSWNSGALTSGVHTFPAVLQSSGLYSLSSVVTVPSSSLGTKTYTCNVDHKPSNTKVDKRVESKYGPPCPPCPAPEFLGGPSVFLFPPKPKDTLMISRTPEVTCVVVDVSQEDPEVQFNWYVDGVEVHNAKTKPREEQFNSTYRVVSVLTVLHQDWLNGKEYKCKVSNKGLPSSIEKTISKAKGQPREPQVYTLPPSQEEMTKNQVSLTCLVKGFYPSDIAVEWESNGQPENNYKTTPPVLDSDGSFLLYSKLTVDKSRWQEGNVFSCSVMHEALHNHYTQKSLSLSLGK
light 1: B7 light with V83F, G84A, A100Q, L106I
heavy 2: not shown
light 2: DIVMTQTPLSSPVTLGQPASISCRSSQSLVHRQGNTYFHWLQQRPGQPPRLLIYKVSNRFSGVPDRFSGSGAGTDFTLKISRVEAEDVGVYYCSQSTHVPYTFGQGTKLEIKRTVAAPSVFIFPPSDEQLKSGTASVVCLLNNFYPREAKVQWKVDNALQSGNSQESVTEQDSKDSTYSLSSTLTLSKADYEKHKVYACEVTHQGLSSPVTKSFNRGEC
notes: also called anti-FVII(a)/anti-TLT-1 bispecific antibody of mAb0865 and mAb1076
- Kd [3]: 0.06 nM

B23: biAb0245 (bispecific antibody, human IgG4 S228P, kappa)
heavy 1: B22 heavy 1 with Q1D, A108W, G110D, Y111P
light 1: DIVMTQSPATLSVTAGDRVSLSCRASQGISDYLHWYQQKSHESPRLLIKYTSQPVSGIPSRFSGSGSGSEFTLSINSVEPEDVGVYYCQNGHSFPLTFGAGTKLELKRTVAAPSVFIFPPSDEQLKSGTASVVCLLNNFYPREAKVQWKVDNALQSGNSQESVTEQDSKDSTYSLSSTLTLSKADYEKHKVYACEVTHQGLSSPVTKSFNRGEC
heavy 2: not shown
light 2: B22 light 2
notes: also called anti-FVII(a)/anti-TLT-1 bispecific antibody of mAb0873 and mAb1076
- Kd [3]: 600 nM

Further lines, results first:

- AT inhibition (kinh %) [2]: 26%
- TGT activity (% FVIIa) [2]: 88 % FVIIa
B2: mAb0701 (antibody, V domains shown)
VH: QIQLQQSGPELVKPGTSVKMACKASDYTFTDYYLHWVKQRPGQGLEWIGWIYPGSGNTKFNEKFKGKATLTVDTSSSTAYMHLSSLTSDDTAVYFCTRVLGRGAMDYWGQGTSVTVSS
VL: DIVLTQSPPSLAVSLGQRAIISCKASQSVSFAGTSLMYWYQQKPGQQPKVLMYRASNLEAGVPIRFSGSGSGTDFTLNIHPVEEDDVATYYCQQSREYPYTFGGGTKLEIK

- Kd [1]: 1.7 nM
B5: mAb0120 (antibody, human IgG4 S228P, kappa, V domains shown)
VH: B1 VH with K13E, P41F, G45K, I49M, A89E, W108A, D110G, P111Y, L117S
VL: B3 VL with S90N
notes: as for B1

- Kd [1]: 1.7 nM
B8: mAb0128 (antibody, human IgG4 S228P, kappa, V domains shown)
VH: B1 VH with K13E, S30T, P41F, G45K, I49M, A89E, W108A, D110G, P111Y, L117S
VL: B3 VL with P15A, P40S, S90N
notes: as for B1

- Kd [1]: 1.8 nM
B11: mAb0124 (antibody, human IgG4 S228P, kappa, V domains shown)
VH: B1 VH with K13E, S30T, P41F, G45K, I49M, A89E, W108A, D110G, P111Y, L117S
VL: B3 VL with E42Q, S90N
notes: as for B1

- Kd [1]: 1.8 nM
B12: mAb0130 (antibody, human IgG4 S228P, kappa, V domains shown)
VH: B1 VH with K13E, S30T, P41F, G45K, I49M, A89E, W108A, D110G, P111Y, L117S
VL: B3 VL with V83F, S90N
notes: as for B1

- Kd [1]: 2.2 nM
B13: mAb0129 (antibody, human IgG4 S228P, kappa, V domains shown)
VH: B1 VH with K13E, S30T, P41F, G45K, I49M, A89E, W108A, D110G, P111Y, L117S
VL: B3 VL with T51A, S90N
notes: as for B1

- Kd [1]: 2.5 nM
B14: mAb0126 (antibody, human IgG4 S228P, kappa, V domains shown)
VH: B1 VH with K13E, S30T, P41F, G45K, I49M, A89E, W108A, D110G, P111Y, L117S
VL: B3 VL with I29V, S90N
notes: as for B1

- Kd [1]: 1.7 nM
B15: mAb0122 (antibody, human IgG4 S228P, kappa)
heavy: not shown
light: B7 light with A100Q
notes: as for B1

- Kd [1]: 1.7 nM
B16: mAb0125 (antibody, human IgG4 S228P, kappa, V domains shown)
VH: B1 VH with K13E, S30T, P41F, G45K, I49M, A89E, W108A, D110G, P111Y, L117S
VL: B3 VL with G84A, S90N
notes: as for B1

- Kd [1]: 5.8 nM
B17: mAb0123 (antibody, human IgG4 S228P, kappa, V domains shown)
VH: B1 VH with K13E, S30T, P41F, G45K, I49M, A89E, W108A, D110G, P111Y, L117S
VL: B3 VL with D31S, S90N
notes: as for B1

- Kd [1]: 1 nM
B18: mAb0119 (antibody, human IgG4 S228P, kappa)
heavy: not shown
light: B7 light
notes: as for B1

- Kd [1]: 2 nM
B19: mAb0121 (antibody, human IgG4 S228P, kappa, V domains shown)
VH: B1 VH with K13E, S30T, P41F, G45K, I49M, A89E, W108A, D110G, L117S
VL: B3 VL with S90N
notes: as for B1
